{
  "source": "patent US20210123036A1",
  "about": "(UNIVERSITY OF LIVERPOOL, published 2021)",
  "key": {"[1]": {"molecular_target": "type I collagen gelatin (skin gelatin)", "sequence (P02453 162-1217, chain 1 of 2)": "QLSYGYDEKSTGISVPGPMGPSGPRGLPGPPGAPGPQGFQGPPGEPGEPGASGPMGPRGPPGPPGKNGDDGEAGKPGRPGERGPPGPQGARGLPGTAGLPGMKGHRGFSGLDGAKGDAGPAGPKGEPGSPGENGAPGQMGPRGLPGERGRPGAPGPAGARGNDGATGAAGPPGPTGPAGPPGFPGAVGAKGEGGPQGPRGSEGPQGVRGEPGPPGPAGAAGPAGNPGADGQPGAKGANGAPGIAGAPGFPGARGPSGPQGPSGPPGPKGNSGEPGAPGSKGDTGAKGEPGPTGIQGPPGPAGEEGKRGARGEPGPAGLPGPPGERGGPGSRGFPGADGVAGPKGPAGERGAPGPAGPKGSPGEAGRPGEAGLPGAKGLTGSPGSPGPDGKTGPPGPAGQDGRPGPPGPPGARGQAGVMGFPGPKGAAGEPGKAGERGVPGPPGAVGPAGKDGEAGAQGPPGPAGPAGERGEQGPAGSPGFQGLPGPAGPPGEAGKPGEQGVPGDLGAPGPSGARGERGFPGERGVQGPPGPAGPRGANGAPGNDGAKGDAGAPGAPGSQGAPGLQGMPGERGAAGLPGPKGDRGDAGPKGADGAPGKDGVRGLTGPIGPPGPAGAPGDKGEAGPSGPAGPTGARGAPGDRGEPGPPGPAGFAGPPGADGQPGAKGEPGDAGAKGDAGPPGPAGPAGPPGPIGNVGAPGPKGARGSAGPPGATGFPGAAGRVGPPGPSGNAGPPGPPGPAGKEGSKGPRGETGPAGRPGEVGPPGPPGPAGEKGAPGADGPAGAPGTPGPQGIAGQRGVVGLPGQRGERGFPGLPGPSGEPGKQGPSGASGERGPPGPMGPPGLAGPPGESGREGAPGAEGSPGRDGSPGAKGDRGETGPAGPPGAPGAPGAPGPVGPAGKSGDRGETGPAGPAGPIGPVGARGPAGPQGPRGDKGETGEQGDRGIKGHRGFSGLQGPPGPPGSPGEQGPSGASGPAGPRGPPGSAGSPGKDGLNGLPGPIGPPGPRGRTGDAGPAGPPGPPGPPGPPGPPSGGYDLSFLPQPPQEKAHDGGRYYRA", "sequence (P02465 80-1117, chain 2 of 2, further chain)": "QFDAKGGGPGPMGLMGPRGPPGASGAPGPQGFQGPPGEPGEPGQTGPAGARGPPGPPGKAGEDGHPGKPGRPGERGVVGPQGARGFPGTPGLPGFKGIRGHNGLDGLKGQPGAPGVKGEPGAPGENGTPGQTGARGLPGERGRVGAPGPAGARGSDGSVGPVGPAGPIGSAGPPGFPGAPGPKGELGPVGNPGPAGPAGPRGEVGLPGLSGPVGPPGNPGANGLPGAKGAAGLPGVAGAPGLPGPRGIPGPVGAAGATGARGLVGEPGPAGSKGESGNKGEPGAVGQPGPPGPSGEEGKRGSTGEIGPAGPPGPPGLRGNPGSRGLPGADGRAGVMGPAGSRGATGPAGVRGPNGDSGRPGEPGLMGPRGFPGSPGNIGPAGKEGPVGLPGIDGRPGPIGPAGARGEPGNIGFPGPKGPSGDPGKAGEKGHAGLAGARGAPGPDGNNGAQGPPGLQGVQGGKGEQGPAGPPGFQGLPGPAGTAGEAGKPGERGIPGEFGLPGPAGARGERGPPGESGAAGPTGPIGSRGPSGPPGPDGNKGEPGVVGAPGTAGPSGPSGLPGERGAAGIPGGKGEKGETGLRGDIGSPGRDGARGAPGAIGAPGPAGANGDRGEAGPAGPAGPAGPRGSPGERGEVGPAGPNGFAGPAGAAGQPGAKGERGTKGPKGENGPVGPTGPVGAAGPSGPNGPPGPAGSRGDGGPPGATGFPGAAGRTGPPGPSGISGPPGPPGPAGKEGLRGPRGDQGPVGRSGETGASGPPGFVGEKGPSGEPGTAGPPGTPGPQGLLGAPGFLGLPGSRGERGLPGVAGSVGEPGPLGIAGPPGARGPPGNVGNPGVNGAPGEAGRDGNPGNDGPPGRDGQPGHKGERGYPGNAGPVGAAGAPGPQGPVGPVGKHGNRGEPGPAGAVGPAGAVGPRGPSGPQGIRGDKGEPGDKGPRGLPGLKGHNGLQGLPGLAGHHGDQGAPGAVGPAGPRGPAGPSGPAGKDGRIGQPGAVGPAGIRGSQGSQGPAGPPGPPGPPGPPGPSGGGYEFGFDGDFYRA", "experiment": "ELISA-type plate binding assay, biotinylated protein on gelatin-coated plate"}, "[2]": {"molecular_target": "T1, type II collagen gelatin", "T1 construct": "Denatured collagen, coated on plates (ELISA-type assay, cell adhesion) or added in solution (NMR); also called type II gelatin; collagen type II gelatin", "experiment": "ELISA-type plate binding assay, biotinylated protein on gelatin-coated plate"}, "[3]": {"molecular_target": "T1, type II collagen gelatin", "experiment": "cell-based or functional assay"}, "[4]": {"molecular_target": "T1, type II collagen gelatin", "experiment": "ELISA-type plate binding assay, comparison of Kd", "protocol": "The chimeric peptides were assessed for binding to collagen type I and type II gelatin using the plate binding assay (described in the materials and methods section). […] A peptide comprising three modules corresponding to module 1 was not tested."}, "[5]": {"molecular_target": "T1, type II collagen gelatin", "experiment": "ELISA-type plate binding assay, comparison of Kd (summary of the Examples)"}, "[6]": {"molecular_target": "type I collagen gelatin (skin gelatin)", "experiment": "ELISA-type plate binding assay, comparison of apparent Kd"}},
  "note": "Where no end group is shown, it is not given here.",
  "data": [
    {"binder": "collagen binding domain (CBD) of gelatinase A (MMP-2) (other, Expressed in Shuffle T7 E. coli with a His6-SUMO tag that was cleaved off; also called CBD of MMP-2; Full length CBD) ADGEYCKFPFLFNGKEYNSCTDTGRSDGFLWCSTTYNFEKDGKYGFCPHEALFTMGGNAEGQPCKFPFRFQGTSYDSCTTEGRTDGYRWCGTTEDYDRDKKYGFCPETAMSTVGGNSEGAPCVFPFTFLGNKYESCTSAGRSDGKMWCATTANYDDDRKWGFCPD", "values": [
      {"measurement": "Kd", "setting": "[1]", "result": 2.58, "unit": "nM"},
      {"measurement": "Kd", "setting": "[2]", "result": 20.4, "unit": "nM"}
    ]},
    {"binder": "conjugate comprising MSCs and the peptide 222 (other, carboxylic residues cationised by covalent coupling of N,N'-dimethyl-1,3-propanediamine (DMPA); corona of glycolic acid ethoxylate 4-nonylphenyl ether surfactant; incorporated into the membrane of mesenchymal stem cells) EGQVVFTMYGNAEGQPCKFPFRFQGTSYDSCTTEGRTDGYRWCGTTEDYDRDKKYGFCPHEALFTMGGNAEGQPCKFPFRFQGTSYDSCTTEGRTDGYRWCGTTEDYDRDKKYGFCPETALFTMGGNAEGQPCKFPFRFQGTSYDSCTTEGRTDGYRWCGTTEDYDRDKKYGFCPDQGYSL", "values": [
      {"measurement": "median % adhesion relative to plastic", "setting": "[3]", "result": 224, "unit": "%"}
    ]},
    {"binder": "peptide 222 comprising three modules corresponding to module 2 of the CBD of MMP-2 (designed binder, Expressed in Shuffle cells with a His6-SUMO tag that was cleaved off) EGQVVFTMYGNAEGQPCKFPFRFQGTSYDSCTTEGRTDGYRWCGTTEDYDRDKKYGFCPHEALFTMGGNAEGQPCKFPFRFQGTSYDSCTTEGRTDGYRWCGTTEDYDRDKKYGFCPETALFTMGGNAEGQPCKFPFRFQGTSYDSCTTEGRTDGYRWCGTTEDYDRDKKYGFCPDQGYSL", "values": [
      {"measurement": "fold higher affinity than 333", "setting": "[4]", "result": 10, "unit": "fold"},
      {"measurement": "fold higher affinity than the full length CBD", "setting": "[4]", "result": 10, "unit": "fold"},
      {"measurement": "fold higher affinity than the naturally occurring CBD of MMP-2", "setting": "[5]", "result": "~14", "unit": "fold"},
      {"measurement": "Kd", "setting": "[1]", "result": 0.497, "unit": "nM"},
      {"measurement": "Kd", "setting": "[2]", "result": 1.46, "unit": "nM"}
    ]},
    {"binder": "AEGQPCKFPFRFQGTSYDSCTTEGRTDGYRWCGTTEDYDRDKKYGFCPE (other, cysteine pairing not given here; also: biotinylated for plate binding assay, also called M2)", "note": "[module 2 of the CBD of MMP-2]", "values": [
      {"measurement": "Kd", "setting": "[1]", "result": 3720, "unit": "nM"},
      {"measurement": "Kd", "setting": "[2]", "result": 4260, "unit": "nM"}
    ]},
    {"binder": "SEGAPCVFPFTFLGNKYESCTSAGRSDGKMWCATTANYDDDRKWGFCPD (other, cysteine pairing not given here; also: biotinylated for plate binding assay, also called M3)", "note": "[module 3 of the CBD of MMP-2]", "values": [
      {"measurement": "fold better binding than to type II gelatin", "setting": "[6]", "result": 3, "unit": "fold"},
      {"measurement": "Kd", "setting": "[1]", "result": 4090, "unit": "nM"},
      {"measurement": "Kd", "setting": "[2]", "result": 12000, "unit": "nM"}
    ]},
    {"binder": "peptide 333 comprising three modules corresponding to module 3 of the CBD of MMP-2 (designed binder) EGQVVSTVYGNSEGAPCVFPFTFLGNKYESCTSAGRSDGFLWCATTANYDDDRKWGFCPHEALFTMGGNSEGAPCVFPFTFLGNKYESCTSAGRSDGKRWCATTANYDDDRKWGFCPETAMSTVGGNSEGAPCVFPFTFLGNKYESCTSAGRSDGKMWCATTANYDDDRKWGFCPDQGYSL", "values": [
      {"measurement": "Kd", "setting": "[1]", "result": 0.0159, "unit": "nM"},
      {"measurement": "Kd", "setting": "[2]", "result": 117, "unit": "nM"}
    ]}
  ]
}
